How the values were obtained:
[1] = target: hemagglutinin of influenza virus A/Brisbane/59/2007 (H1) (influenza A virus H1N1, UniProt B4URD6 18-565); assay: cell-based or functional assay
[2] = target: hemagglutinin of influenza virus A/Env/MPU3156/05 (H2) (influenza A virus H2); assay: cell-based or functional assay
[3] = target: hemagglutinin of influenza virus A/EW/MPF461/07 (H5) (influenza A virus H5); assay: cell-based or functional assay
[4] = target: hemagglutinin of influenza virus A/Hong Kong/1073/99 (H9) (influenza A virus H9); assay: cell-based or functional assay
[5] = target: hemagglutinin of influenza virus A/Panama/2007/1999 (H3) (influenza A virus H3); assay: cell-based or functional assay
[6] = target: hemagglutinin of influenza virus A/Brisbane/10/2007 (H3) (influenza A virus H3); assay: cell-based or functional assay
[7] = target: hemagglutinin of influenza virus A/WF/MPA 892/06 (H4) (influenza A virus H4); assay: cell-based or functional assay
[8] = target: hemagglutinin of influenza virus A/Chick/Germany/N/49 (H10) (influenza A virus H10); assay: cell-based or functional assay
[9] = target: mini1 cluster11 (A/Brisbane/59/2007) (influenza A virus H1N1, UniProt A8C8J4 18-565); assay: FACS on HEK293F
[10] = target: mini2 cluster11 (A/Brisbane/59/2007) (influenza A virus H1N1, UniProt A8C8J4 18-565); assay: FACS on HEK293F
[11] = target: mini3 cluster11 (A/Brisbane/59/2007) (influenza A virus H1N1, UniProt A8C8J4 18-565); assay: FACS on HEK293F
[12] = target: mini1 cluster11+5 (A/Brisbane/59/2007) (influenza A virus H1N1, UniProt A8C8J4 18-565); assay: FACS on HEK293F
[13] = target: mini2 cluster11+5 (A/Brisbane/59/2007) (influenza A virus H1N1, UniProt A8C8J4 18-565); assay: FACS on HEK293F
[14] = target: mini3 cluster11+5 (A/Brisbane/59/2007) (influenza A virus H1N1, UniProt A8C8J4 18-565); assay: FACS on HEK293F
[15] = target: mini4 cluster11+5 (A/Brisbane/59/2007) (influenza A virus H1N1, UniProt A8C8J4 18-565); assay: FACS on HEK293F
[16] = target: HK68 H3mini2a-linker+cl9_+10+12+16+CG7-GCN4T (influenza A virus H3N2, UniProt Q91MA7 17-566); assay: FACS on HEK293F
[17] = target: HK68 H3mini2a-linker+cl9_+10+12+19+GCN4T (influenza A virus H3N2, UniProt P12584 1-550); assay: FACS on HEK293F
[18] = target: HK68 H3mini2a-linker+cl9_+10+12+17+CG7-GCN4T (influenza A virus H3N2, UniProt Q91MA7 17-566); assay: FACS on HEK293F
[19] = target: H3 HK68 mini2a-linker2+cl9_+10+12+GCN4T (influenza A virus H3N2, UniProt Q91MA7 17-566); assay: FACS on HEK293F
HK68 H3m2-cl9+10+12 = HK68 H3m2-cl9+10+12 (influenza A virus H3N2, UniProt Q91MA7 17-566); assay: FACS on HEK293F [D00014 FIG. 10B]
HK68 H3m2-cl9+10+11+12 = HK68 H3m2-cl9+10+11+12 (influenza A virus H3N2, UniProt Q91MA7 17-566); assay: FACS on HEK293F [D00014 FIG. 10B]
HK68 H3m2-cl9+10+11+13 = HK68 H3m2-cl9+10+11+13 (influenza A virus H3N2, UniProt Q91MA7 17-566); assay: FACS on HEK293F [D00014 FIG. 10B]
[20] = target: HK68 H3m2-cl9+10+11+12-tri (influenza A virus H3N2, UniProt Q91MA7 17-566); assay: FACS on HEK293F [D00014 FIG. 10B]
[21] = target: HK68 H3m2-cl9+10+11+13-tri (influenza A virus H3N2, UniProt Q91MA7 17-566); assay: FACS on HEK293F [D00014 FIG. 10B]
[22] = target: HK68 H3m2-cl9+10+11+12-GCN4 (influenza A virus H3N2, UniProt Q91MA7 17-566); assay: FACS on HEK293F [D00014 FIG. 10B]
[23] = target: HK68 H3m2-cl9+10+11+13-GCN4 (influenza A virus H3N2, UniProt Q91MA7 17-566); assay: FACS on HEK293F [D00014 FIG. 10B]
[24] = target: H3 Full-length A/Hong Kong/1/1968 (influenza A virus H3N2, UniProt Q91MA7 17-566); assay: FACS on HEK293F [D00014 FIG. 10B]
HK68 H3m2-cl9 = HK68 H3m2-cl9 (influenza A virus H3N2, UniProt Q91MA7 17-566); assay: FACS on HEK293F [D00014 FIG. 10B]
HK68 H3m2-cl9+10 = HK68 H3m2-cl9+10 (influenza A virus H3N2, UniProt Q91MA7 17-566); assay: FACS on HEK293F [D00014 FIG. 10B]

B1: CR9114 (antibody, V domains shown)
VH: QVQLVQSGAEVKKPGSSVKVSCKSSGGTSNNYAISWVRQAPGQGLDWMGGISPIFGSTAYAQKFQGRVTISADIFSNTAYMELNSLTSEDTAVYFCARHGNYYYYSGMDVWGQGTTVTVSS
VL: SYVLTQPPAVSGTPGQRVTISCSGSDSNIGRRSVNWYQQFPGTAPKLLIYSNDQRPSVVPDRFSGSKSGTSASLAISGLQSEDEAEYYCAAWDDSLKGAVFGGGTQLTVL
- virus neutralization assay on MDCK cells, geomean IC50 [1]: 2.6 µg/mL
- virus neutralization assay on MDCK cells, geomean IC50 [2]: 8.8 µg/mL
- virus neutralization assay on MDCK cells, geomean IC50 [3]: 10.5 µg/mL
- virus neutralization assay on MDCK cells, geomean IC50 [4]: 4.4 µg/mL
- virus neutralization assay on MDCK cells, geomean IC50 [5]: 39.9 µg/mL
- virus neutralization assay on MDCK cells, geomean IC50 [6]: 5.6 µg/mL
- virus neutralization assay on MDCK cells, geomean IC50 [7]: 0.8 µg/mL
- virus neutralization assay on MDCK cells, geomean IC50 [8]: 15.7 µg/mL

B2: CR8057 (antibody, V domains shown)
VH: EVQLVESGGGLVQPGGSLRLSCAASGFTDSVIFMSWVRQAPGKGLECVSIIYIDDSTYYADSVKGRFTISRHNSMGTVFLEMNSLRPDDTAVYYCATESGDFGDQTGPYHYYAMDV
VL: QSALTQPASVSGSPGQSITISCTGSSGDIGGYNAVSWYQHHPGKAPKLMIYEVTSRPSGVSDRFSASRSGDTASLTVSGLQAEDEAHYYCCSFADSNILI
- binding result [9]: no binding (tested: 5 ug/ml)
- binding result [10]: no binding (tested: 5 ug/ml)
- binding result [11]: no binding (tested: 5 ug/ml)
- binding result [12]: no binding (tested: 5 ug/ml)
- binding result [13]: no binding (tested: 5 ug/ml)
- binding result [14]: no binding (tested: 5 ug/ml)
- binding result [15]: no binding (tested: 5 ug/ml)
- binding result [16]: no binding (tested: 5 ug/ml)
- binding result [17]: no binding (tested: 5 ug/ml)
- binding result [18]: no binding (tested: 5 ug/ml)
- binding result [19]: no binding (tested: 5 ug/ml)
- binding result (HK68 H3m2-cl9+10+12): no binding (tested: 5 ug/ml)
- binding result (HK68 H3m2-cl9+10+11+12): no binding (tested: 5 ug/ml)
- binding result (HK68 H3m2-cl9+10+11+13): no binding (tested: 5 ug/ml)
- binding result [20]: no binding (tested: 5 ug/ml)
- binding result [21]: no binding (tested: 5 ug/ml)
- binding result [22]: no binding (tested: 5 ug/ml)
- binding result [23]: no binding (tested: 5 ug/ml)
- binding result [24]: no binding (tested: 5 ug/ml)
- binding result (HK68 H3m2-cl9): no binding (tested: 5 ug/ml)
- binding result (HK68 H3m2-cl9+10): no binding (tested: 5 ug/ml)

Reference: patent publication US20160355553A1 (Janssen / Centocor, published 2016)
